Assay results: patent US20120014911A1 (published 2012)

Biological target: T1, endogenous PKD1 from 293T cells (human, UniProt Q15139 1-912)
T1 construct: also called PKD1/PKCµ
T1 sequence (looked up): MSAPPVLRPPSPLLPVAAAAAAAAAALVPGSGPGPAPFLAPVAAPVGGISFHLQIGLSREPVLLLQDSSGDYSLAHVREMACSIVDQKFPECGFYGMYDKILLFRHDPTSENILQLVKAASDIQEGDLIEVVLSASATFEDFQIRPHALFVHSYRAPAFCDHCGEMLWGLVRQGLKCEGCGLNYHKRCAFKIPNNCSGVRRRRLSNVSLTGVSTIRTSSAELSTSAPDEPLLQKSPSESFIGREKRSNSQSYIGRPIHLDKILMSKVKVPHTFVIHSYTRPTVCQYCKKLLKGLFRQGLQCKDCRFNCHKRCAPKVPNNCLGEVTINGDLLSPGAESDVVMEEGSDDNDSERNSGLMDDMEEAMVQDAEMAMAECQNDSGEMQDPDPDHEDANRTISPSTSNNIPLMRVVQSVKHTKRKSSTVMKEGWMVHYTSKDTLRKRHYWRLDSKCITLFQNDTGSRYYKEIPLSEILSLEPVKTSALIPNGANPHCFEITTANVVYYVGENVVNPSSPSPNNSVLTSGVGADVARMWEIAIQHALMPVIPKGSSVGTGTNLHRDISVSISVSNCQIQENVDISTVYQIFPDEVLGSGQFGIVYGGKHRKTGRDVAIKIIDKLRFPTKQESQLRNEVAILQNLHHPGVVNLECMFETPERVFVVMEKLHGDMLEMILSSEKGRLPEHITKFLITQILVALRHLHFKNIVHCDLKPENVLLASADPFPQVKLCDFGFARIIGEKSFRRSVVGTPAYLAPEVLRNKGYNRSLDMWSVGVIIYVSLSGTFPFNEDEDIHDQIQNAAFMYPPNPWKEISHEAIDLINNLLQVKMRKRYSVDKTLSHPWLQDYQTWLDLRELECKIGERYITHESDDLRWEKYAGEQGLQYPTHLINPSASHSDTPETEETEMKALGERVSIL
Experiment: co-immunoprecipitation of endogenous proteins from 293T cell lysates, untreated or treated with IFN-α

binding result: no binding
B1: endogenous IFNAR1 from 293T cells (receptor, human, UniProt P17181 28-557, looked up)
chain: KNLKSPQKVEVDIIDDNFILRWNRSDESVGNVTFSFDYQKTGMDNWIKLSGCQNITSTKCNFSSLKLNVYEEIKLRIRAEKENTSSWYEVDSFTPFRKAQIGPPEVHLEAEDKAIVIHISPGTKDSVMWALDGLSFTYSLVIWKNSSGVEERIENIYSRHKIYKLSPETTYCLKVKAALLTSWKIGVYSPVHCIKTTVENELPPPENIEVSVQNQNYVLKWDYTYANMTFQVQWLHAFLKRNPGNHLYKWKQIPDCENVKTTQCVFPQNVFQKGIYLLRVQASDGNNTSFWSEEIKFDTEIQAFLLPPVFNIRSLSDSFHIYIGAPKQSGNTPVIQDYPLIYEIIFWENTSNAERKIIEKKTDVTVPNLKPLTVYCVKARAHTMDEKLNKSSVFSDAVCEKTKPGNTSKIWLIVGICIALFALPFVIYAAKVFLRCINYVFFPSLKPSSSIDEYFSEQPLKNLLLSTSEEQIEKCFIIENISTIATVEETNQTDEDHKKYSSQTSQDSGNYSNEDESESKTSEELQQDFV
notes: also called the receptor
